IC50 data for 46 sequences are collected here from the Immune Epitope Database (IEDB).

pIC50: −log10 of the molar value.

The target of one test is HLA-B*38:01. Briefly: IEDB peptide-MHC binding, purified MHC/competitive/radioactivity; ≥ and ≤ were set here for values at or beyond the usual limits of such assays. Particulars: source organism: Human immunodeficiency virus 1.
KMQKEHALF: the pIC50 is 4.92. Still for that read-out and setting: under MHEDIISLW stands 7.28; under WHLGQGVSI, 8.00. KRHKEFALF: the pIC50 was 5.96. Still for that read-out and setting: under GHQAAMQML stands 5.99; under KTQKEYALF, 4.39.

The test is the same for the next values; noted with them: source organism: Simian immunodeficiency virus.
For the sequence THTNGVRLL, the pIC50 is 6.21. Turning to NETWYSADL, the negative-log IC50 (pIC50) was 5.41.

Take DHQAAMQII: the pIC50 is 6.90.

Take THIQQDPAL: the pIC50 is 6.83. On the same count and under the same terms, under FRQYTAFTL stands 7.77. The same measure, in the same setting: under NHLPRELIF stands 5.95. On the same count and under the same terms, as for VPSLQYLAL, the figure is 5.82. On to DRFGLAESL, for which the negative-log IC50 (pIC50) was 7.52. Same read-out and setting: as for WLFSNCRTL, the figure is 6.00; as for IHGQANSDL, 5.63.

Staying with this test, now noted: source organism: Vaccinia virus.
With IHIPGDTLF, the pIC50 was 7.96.

Still in this test, the particulars now being: source organism: Variola virus.
Consider YKEPNSIIL, for which the pIC50 is 5.33.

Consider RHDITGFIL, for which the negative logarithm of the IC50 (pIC50) was 8.19.

For the next test, the target named is HLA-B*39:06. Described as above. The following applies: source organism: Homo sapiens.
For the sequence NRYDGIYKV, the negative logarithm of the IC50 (pIC50) was 6.43. Still for that read-out and setting: under YYDEKVVKL stands 5.43; under THNYGIGAA, 7.82.

On to GRSIAFHSA, for which the pIC50 is 7.40. On the same count and under the same terms, as for TQRLIRESA, the figure is 7.96; as for ERFYGKYTA, 8.04. For the sequence HRLEGLREA, the negative-log IC50 (pIC50) is 8.02. Same read-out and setting: under TFDVAPSRL stands 6.45. Still for that read-out and setting: under DHHLPPPAA stands 7.14; under ERMKLVVQA, 7.82.

Regarding TRYQIPKEV, the negative-log IC50 (pIC50) was 6.35. On the same count and under the same terms, as for NHINVELSL, the figure is 4.55; as for IEHDVVMKA, 6.86; as for SRYLGKITA, 8.09. For YHDIKRITA, the pIC50 was 7.77. Still for that read-out and setting: as for LQHPFVRSA, the figure is 8.11.

For FRYQGHVGA, the pIC50 was 8.77.

As to NRVMLPKAA, the negative-log IC50 (pIC50) was 8.57.

ARFTGIKTA: the pIC50 is 8.22.

Staying with this test, now noted: source organism: Mus musculus.
On to IHIDSTPFA, for which the negative logarithm of the IC50 (pIC50) was 5.66. As for TNVFLFLFA, the negative logarithm of the IC50 (pIC50) was 4.16. Same read-out and setting: as for EAFEHTPGV, the figure is at most 4.11; as for INSEMFLRS, at most 4.11.

In the case of LVAEAFEHT, the negative logarithm of the IC50 (pIC50) was at most 4.12.

Consider EHTPGVHMA, for which the pIC50 was 5.92. Same read-out and setting: under YRFIKIPTH stands 5.87; under MALWMRFLP, 4.92.
